Laboratory results from the supplement of paper PMC5998384.

Experiments:
HeLa Kyoto [1] = assay: thermal stability score vs G1/S (z-score of summed log2 fold changes over temperatures); higher = more thermally stable than in G1/S
HeLa Kyoto [2] = assay: solubility in G1/S (NP-40 vs SDS abundance) (log2 ratio); higher = more soluble; details: cell cycle stage: G1/S
HeLa Kyoto [3] = assay: solubility change mitosis vs G1/S (difference of NP-40 vs SDS log2 ratios) (log2 ratio difference); higher = more soluble in mitosis
HeLa Kyoto [4] = assay: melting temperature (median over replicates), in situ; higher = more thermally stable
[5] = cell cycle stage: early G1 (4.5 h after nocodazole release)
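For melting temperature (median over replicates), in situ in this document: HeLa Kyoto cells synchronized by double thymidine or nocodazole block, proteins quantified by TMT10plex mass spectrometry, three independent biological replicates.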
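For solubility change mitosis vs G1/S (difference of NP-40 vs SDS log2 ratios) in this document: synchronized HeLa Kyoto cells (double thymidine block for G1/S, nocodazole release for mitosis), protein amounts in NP-40 versus SDS lysates quantified by mass spectrometry, three biological replicates.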
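For solubility in G1/S (NP-40 vs SDS abundance) in this document: HeLa Kyoto cells arrested at G1/S by double thymidine block, proteins quantified by TMT10plex mass spectrometry in mild NP-40 versus SDS extracts, three biological replicates.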
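For thermal stability score vs G1/S (z-score of summed log2 fold changes over temperatures) in this document: synchronized HeLa Kyoto cells, proteins quantified by TMT10plex mass spectrometry, three biological replicates, mitosis taken 0.5 h after nocodazole release, G1/S directly after double thymidine block.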

Chain of TSC2 (chain, as listed by the source): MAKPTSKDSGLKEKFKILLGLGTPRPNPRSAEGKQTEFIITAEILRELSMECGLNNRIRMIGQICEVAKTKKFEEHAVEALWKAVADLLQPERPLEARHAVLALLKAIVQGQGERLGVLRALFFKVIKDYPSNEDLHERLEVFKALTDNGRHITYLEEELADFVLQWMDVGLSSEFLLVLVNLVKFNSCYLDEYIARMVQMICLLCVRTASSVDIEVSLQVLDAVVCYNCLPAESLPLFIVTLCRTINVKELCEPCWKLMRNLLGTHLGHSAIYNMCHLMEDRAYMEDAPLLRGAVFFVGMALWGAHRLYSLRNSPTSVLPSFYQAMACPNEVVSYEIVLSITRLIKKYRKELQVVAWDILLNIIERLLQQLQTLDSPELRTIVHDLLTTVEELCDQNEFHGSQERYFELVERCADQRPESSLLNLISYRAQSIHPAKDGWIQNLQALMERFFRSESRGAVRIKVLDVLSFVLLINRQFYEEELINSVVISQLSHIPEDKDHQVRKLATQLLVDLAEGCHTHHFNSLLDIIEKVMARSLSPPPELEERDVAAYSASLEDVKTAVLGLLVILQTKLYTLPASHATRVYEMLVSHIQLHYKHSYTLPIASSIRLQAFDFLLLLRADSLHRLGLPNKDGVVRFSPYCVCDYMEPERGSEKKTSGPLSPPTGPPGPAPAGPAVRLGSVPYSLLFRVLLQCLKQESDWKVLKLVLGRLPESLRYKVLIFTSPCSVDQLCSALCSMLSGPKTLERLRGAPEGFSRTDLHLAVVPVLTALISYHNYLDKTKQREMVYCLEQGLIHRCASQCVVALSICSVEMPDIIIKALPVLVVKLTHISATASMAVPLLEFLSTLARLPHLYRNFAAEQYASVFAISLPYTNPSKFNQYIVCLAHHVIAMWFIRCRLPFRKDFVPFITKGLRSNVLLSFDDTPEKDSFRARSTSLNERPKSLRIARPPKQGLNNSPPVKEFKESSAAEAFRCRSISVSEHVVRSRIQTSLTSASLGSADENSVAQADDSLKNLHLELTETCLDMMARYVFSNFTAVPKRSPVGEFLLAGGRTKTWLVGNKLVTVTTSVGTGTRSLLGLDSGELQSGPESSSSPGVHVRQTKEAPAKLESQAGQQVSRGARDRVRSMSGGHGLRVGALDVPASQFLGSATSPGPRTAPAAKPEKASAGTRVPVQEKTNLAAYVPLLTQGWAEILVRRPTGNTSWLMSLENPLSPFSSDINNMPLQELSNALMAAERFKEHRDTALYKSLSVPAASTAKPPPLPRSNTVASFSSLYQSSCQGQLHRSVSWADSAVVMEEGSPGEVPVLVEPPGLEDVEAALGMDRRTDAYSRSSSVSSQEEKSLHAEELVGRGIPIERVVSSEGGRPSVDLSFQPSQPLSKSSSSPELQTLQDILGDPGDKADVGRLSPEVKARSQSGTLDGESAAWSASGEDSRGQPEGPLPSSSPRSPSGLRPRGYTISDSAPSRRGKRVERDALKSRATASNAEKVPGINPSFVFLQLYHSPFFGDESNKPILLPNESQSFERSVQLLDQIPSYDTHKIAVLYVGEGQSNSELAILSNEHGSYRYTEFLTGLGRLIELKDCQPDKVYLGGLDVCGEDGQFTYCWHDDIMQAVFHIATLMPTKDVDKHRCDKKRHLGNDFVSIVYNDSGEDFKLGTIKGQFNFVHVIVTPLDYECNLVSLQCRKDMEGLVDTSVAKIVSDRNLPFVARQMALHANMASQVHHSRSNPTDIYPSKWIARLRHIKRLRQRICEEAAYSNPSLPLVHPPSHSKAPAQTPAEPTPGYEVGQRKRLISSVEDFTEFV
Chain of UBE2V2 (chain, as listed by the source): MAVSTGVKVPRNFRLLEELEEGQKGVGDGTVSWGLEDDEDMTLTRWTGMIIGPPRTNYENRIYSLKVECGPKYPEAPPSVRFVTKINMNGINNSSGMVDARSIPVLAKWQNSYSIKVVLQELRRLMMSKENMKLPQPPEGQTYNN
Chain of ZNF207 (chain, as listed by the source): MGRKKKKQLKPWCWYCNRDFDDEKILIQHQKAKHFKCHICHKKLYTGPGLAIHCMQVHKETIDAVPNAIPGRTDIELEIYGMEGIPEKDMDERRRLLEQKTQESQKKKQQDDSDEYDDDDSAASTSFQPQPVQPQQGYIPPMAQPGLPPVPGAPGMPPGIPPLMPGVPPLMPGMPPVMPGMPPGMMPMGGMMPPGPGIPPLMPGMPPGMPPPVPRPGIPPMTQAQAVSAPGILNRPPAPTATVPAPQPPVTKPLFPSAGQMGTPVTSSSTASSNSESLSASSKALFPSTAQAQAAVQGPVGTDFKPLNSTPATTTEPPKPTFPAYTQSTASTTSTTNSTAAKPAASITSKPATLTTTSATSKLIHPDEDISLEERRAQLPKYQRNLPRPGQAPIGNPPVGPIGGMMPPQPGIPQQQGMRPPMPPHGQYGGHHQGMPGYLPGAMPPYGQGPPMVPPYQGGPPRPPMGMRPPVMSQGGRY

Substance	thermal stability score (HeLa Kyoto [1]; [5])	thermal stability score (HeLa Kyoto [1]; cell cycle stage: mitosis)	solubility in G1/S (log2) (HeLa Kyoto [2])	solubility change mitosis (log2) (HeLa Kyoto [3])	melting temperature (HeLa Kyoto [4]; cell cycle stage: G1/S)	melting temperature (HeLa Kyoto [4]; cell cycle stage: mitosis)
TPR	-1.4	0.657	-0.23	0.191	50.3 °C	50.8 °C
TRPM7	0.936	0.742	-0.312	-0.0119	51.6 °C	51.4 °C
TSC2	0.00265	0.786	-0.16	-0.0844	49.6 °C	50.9 °C
TSR3	0.927	-0.253	0.0751	-0.12	54.3 °C	54.3 °C
UBE2V2	0.348	-0.815	0.464	0.122	52.5 °C	52.9 °C
UBR2	0.798	1.58	-0.361	-0.184	49.9 °C	49.8 °C
UGGT2	2.37	4.53	-0.222	-0.15	54 °C	54.1 °C
UNC119B	-0.908	-0.273	0.268	-0.089	50.6 °C	50.3 °C
USP34	0.493	1.73	-0.314	-0.0816	49.5 °C	50.2 °C
UTRN	0.795	1.84	0.0106	-0.109	49 °C	48.5 °C
WBSCR16	0.481	-0.564	-0.259	-0.168	53.6 °C	52.7 °C
WDR48	3.81	2.36	-0.162	-0.036	52.5 °C	53.9 °C
WIZ	0.511	-0.305	-0.0213	0.321	50.4 °C	50.8 °C
XRN1	0.741	0.939	-0.345	-0.0622	49 °C	48.5 °C
ZC3H13	0.124	2.39	-0.595	0.414	49.5 °C	50.7 °C
ZCCHC11	0.72	1.31	-0.0583	-0.11	50.6 °C	49.4 °C
ZNF207	-5.35	-6.05	0.0156	0.36	55.8 °C	55.4 °C
ZNF638	1.39	4.74	-0.709	0.363	48.1 °C	50.2 °C
ZSWIM8	0.66	1.55	-0.162	-0.0253	49.2 °C	49 °C
